Assay results taken from article PMC2198845 (The Journal of Cell Biology, 2001).

Target: the molecule itself
Experiment: cross-linking

B1: endophilin NH2-terminal 125 amino acid fragment (domain or fragment, rat, UniProt O35179 1-125, looked up)
chain: MSVAGLKKQFHKATQKVSEKVGGAEGTKLDDDFKEMERKVDVTSRAVMEIMTKTIEYLQPNPASRAKLSMINTMSKIRGQEKGPGYPQAEALLAEAMLKFGRELGDDCNFGPALGEVGEAMRELS
stoichiometry N: 2
